Where a chain is given by its changes, count along the chain named. Each block holds one binder with its values, some of them ahead of it.
Assays:
[1] = target: T1, human serum albumin (HSA, Sigma-Aldrich) (human, UniProt P02768 25-609); assay: BIAcore, HSA on CM5 chip
T1 construct: also called human albumin
Procedure: (§1) FIG. 23. BIAcore analysis for binding of DOM0100-AlbudAb in-line fusions to human serum albumin (HSA). HSA (Sigma-Aldrich) was coated on a BIAcore CM5 chip using EDC/NHS chemistry according to manufacturer's instructions. Subsequently, the DMS constructs, each consisting N-terminally to C-terminally of an anti-TNFR1 dAb-Linker-AlbudAb and identified in Table 6, were injected at 1 μM over the HSA surface and binding was monitored. […] The corresponding BIAcore trace for each DMS clone is indicated with an arrow.

[2] = target: T2, mouse serum albumin (MSA, Sigma-Aldrich) (mouse, UniProt P07724 25-608); assay: BIAcore, MSA on CM5 chip
T2 construct: also called mouse albumin
Procedure: as §1, with “22.” for “23.”, “mouse” for “human”, “(MSA). MSA” for “(HSA). HSA”, “MSA” for “HSA”
After expression and purification, all constructs were tested on the BIAcore for binding to both mouse and human serum albumin. The off-rates were determined and used to discriminate between the AlbudAbs for their suitability in prolonging the half-life of the fusion molecule. Whereas the linker had little influence on the affinity of the AlbudAb for albumin, a significant difference existed between the dAbs and their albumin affinity. The best AlbudAb for mouse binding was DOM7h-11-15 followed by DOM7m-16 and DOM7h-11-12 (FIG. 22).

[3] = target: T3, human TNFR1 on MRC-5 cells (human, UniProt P19438 30-455); assay: cell-based or functional assay
T3 sequence (looked up): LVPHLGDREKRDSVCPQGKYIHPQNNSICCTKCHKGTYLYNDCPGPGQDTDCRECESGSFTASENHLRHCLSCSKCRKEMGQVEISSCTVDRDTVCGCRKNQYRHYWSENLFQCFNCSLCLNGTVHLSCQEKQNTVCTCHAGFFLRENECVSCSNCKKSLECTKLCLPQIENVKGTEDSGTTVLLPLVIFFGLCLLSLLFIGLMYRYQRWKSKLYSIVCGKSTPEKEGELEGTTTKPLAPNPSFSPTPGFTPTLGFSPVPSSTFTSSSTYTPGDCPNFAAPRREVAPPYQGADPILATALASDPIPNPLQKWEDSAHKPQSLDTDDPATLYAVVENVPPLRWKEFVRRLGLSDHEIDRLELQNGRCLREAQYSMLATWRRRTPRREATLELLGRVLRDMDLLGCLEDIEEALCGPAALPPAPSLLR

[4] = target: T4, mouse TNFR1 on L929 cells (mouse, UniProt P25118 30-454); assay: cell-based or functional assay
T4 sequence (looked up): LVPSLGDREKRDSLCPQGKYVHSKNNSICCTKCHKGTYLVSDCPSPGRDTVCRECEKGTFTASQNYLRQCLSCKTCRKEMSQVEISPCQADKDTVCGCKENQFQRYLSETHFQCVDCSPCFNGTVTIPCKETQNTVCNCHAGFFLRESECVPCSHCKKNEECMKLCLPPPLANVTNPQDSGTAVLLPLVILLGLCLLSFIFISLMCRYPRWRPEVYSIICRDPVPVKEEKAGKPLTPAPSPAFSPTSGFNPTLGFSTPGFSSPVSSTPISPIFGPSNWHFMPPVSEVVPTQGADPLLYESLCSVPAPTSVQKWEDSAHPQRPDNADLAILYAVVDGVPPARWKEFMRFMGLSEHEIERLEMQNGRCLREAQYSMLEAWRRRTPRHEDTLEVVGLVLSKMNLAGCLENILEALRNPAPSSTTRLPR

[5] = target: T5, Cynomologus monkey TNFR1 on CYNOM-K1 cells (Cynomolgus monkey, UniProt Q2PFV5 30-455); assay: cell-based or functional assay
T5 sequence: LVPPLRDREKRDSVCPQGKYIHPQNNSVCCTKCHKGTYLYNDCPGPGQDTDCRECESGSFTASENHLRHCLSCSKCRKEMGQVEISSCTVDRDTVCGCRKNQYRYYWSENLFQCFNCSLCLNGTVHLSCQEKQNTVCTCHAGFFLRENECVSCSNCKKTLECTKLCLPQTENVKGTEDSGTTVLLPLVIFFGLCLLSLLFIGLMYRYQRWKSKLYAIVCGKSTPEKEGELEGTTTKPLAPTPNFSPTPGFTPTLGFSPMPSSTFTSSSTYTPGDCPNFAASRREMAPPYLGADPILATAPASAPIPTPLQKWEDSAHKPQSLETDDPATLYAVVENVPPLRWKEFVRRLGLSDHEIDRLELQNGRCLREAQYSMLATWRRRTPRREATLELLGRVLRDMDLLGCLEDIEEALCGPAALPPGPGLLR

[6] = target: T6, human TNFR1 (recombinant, R&D Systems cat no. 636-R1/CF, biotinylated) (human, UniProt P19438 30-211, limits assumed, biotinylated with EZ-Link NHS-LC-LC-biotin); assay: BIAcore, human TNFR1 on SA chip
T6 construct: it is not tied to the BIAcore reagent; also called p55; hTNFR1
T6 sequence (looked up): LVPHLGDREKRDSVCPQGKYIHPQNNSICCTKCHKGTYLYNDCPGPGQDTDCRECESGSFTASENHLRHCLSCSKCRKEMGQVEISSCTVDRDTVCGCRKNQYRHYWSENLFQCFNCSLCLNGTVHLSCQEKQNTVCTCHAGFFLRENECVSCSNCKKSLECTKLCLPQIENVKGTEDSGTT
From the text: (§2) BIAcore was done to determine the association and dissociation rates of the different dAbs and in that way establish their binding affinity for both human and mouse TNFR1. Experiments were done using biotinylated TNFR1 (R&D Systems), of the respective species, coupled to streptavidin-coated BIAcore chips followed by injection of a concentration range of the dAbs.

[7] = target: T7, mouse TNFR1 (recombinant, R&D Systems cat no. 425-R1-050/CF, biotinylated) (mouse, UniProt P25118 22-212, biotinylated with EZ-Link NHS-LC-LC-biotin); assay: BIAcore, mouse TNFR1 on SA chip
T7 construct: also called murine TNFR1; biotinylated mouse TNFR1
T7 sequence (looked up): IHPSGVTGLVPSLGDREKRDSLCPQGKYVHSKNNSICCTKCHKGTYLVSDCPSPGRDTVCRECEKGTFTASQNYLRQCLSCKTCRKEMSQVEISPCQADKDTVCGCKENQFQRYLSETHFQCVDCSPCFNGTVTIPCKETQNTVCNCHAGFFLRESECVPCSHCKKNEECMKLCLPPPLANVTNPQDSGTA
From the text: as §2

T1 sequence (P02768 25-609 limits assumed): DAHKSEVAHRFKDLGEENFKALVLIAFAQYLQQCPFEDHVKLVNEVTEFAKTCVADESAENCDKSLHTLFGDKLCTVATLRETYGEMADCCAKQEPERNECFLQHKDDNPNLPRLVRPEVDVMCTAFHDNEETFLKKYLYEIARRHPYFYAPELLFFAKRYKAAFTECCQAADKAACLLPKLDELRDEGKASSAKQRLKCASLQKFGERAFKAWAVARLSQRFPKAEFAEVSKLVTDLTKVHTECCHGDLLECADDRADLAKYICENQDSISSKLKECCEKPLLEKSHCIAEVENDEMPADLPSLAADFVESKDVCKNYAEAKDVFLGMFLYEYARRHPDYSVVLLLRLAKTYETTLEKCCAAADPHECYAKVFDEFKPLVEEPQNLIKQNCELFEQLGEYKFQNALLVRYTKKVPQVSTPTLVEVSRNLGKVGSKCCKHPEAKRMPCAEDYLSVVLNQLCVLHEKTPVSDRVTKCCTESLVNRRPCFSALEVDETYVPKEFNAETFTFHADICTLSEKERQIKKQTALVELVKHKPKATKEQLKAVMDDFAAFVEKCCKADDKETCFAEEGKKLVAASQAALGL

B1: DMS0189 (bispecific antibody)
chain: EVQLLESGGGLVQPGGSLRLSCAASGFTFVKYSMGWVRQAPGKGPEWVSQISNTGDRTYYADSVKGRFTISRDNSKNTLYLQMNSLRAEDTAVYYCAIYTGRWEPFDYWGQGTLVTVSSASTDIQMTQSPSSLSASVGDRVTITCRASRPIGTTLSWYQQKPGKAPKLLILWNSRLQSGVPSRFSGSGSGTDFTLTISSLQPEDFATYYCAQAGTHPTTFGQGTKVEIKRAAAEQKLISEEDLN
notes: anti-TNFR1 dAb / AlbudAb in-line fusion
koff [1]: 0.017 s⁻¹
koff [2]: 0.13 s⁻¹

B3: DOM1h-574-109 (other)
VH: EVQLLESGGGLVQPGGSLRLSCAASGFTFVKYSMGWVRQAPGKGLEWVSQISDTADRTYYAHSVKGRFTISRDNSKNTLYLQMNSLRAEDTAVYYCAIYTGRWVPFEYWGQGTLVTVSS
notes: VH dAb
Human MRC5 ND50 [3]: 1.8 nM
Mouse L929 ND50 [4]: 20 nM
Cynomologus CYNOM-K1 ND50 [5]: 2.3 nM
Kd [6]: 0.23 nM
koff [6]: 5.5e-05 s⁻¹
kon [6]: 240000 M⁻¹ s⁻¹
Kd [7]: 2.8 nM
koff [7]: 0.00033 s⁻¹
kon [7]: 120000 M⁻¹ s⁻¹

B7: DOM1h-574-133 (other)
VH: B3 VH with A61D, V104E, E107V
notes: VH dAb
Human MRC5 ND50 [3]: 2.1 nM
Mouse L929 ND50 [4]: 110 nM
Cynomologus CYNOM-K1 ND50 [5]: 1.7 nM
Kd [6]: 0.34 nM
koff [6]: 8.8e-05 s⁻¹
kon [6]: 260000 M⁻¹ s⁻¹
Kd [7]: 5.2 nM
koff [7]: 0.00075 s⁻¹
kon [7]: 140000 M⁻¹ s⁻¹

B8: DOM1h-574-135 (other)
VH: B3 VH with A61T
notes: VH dAb
Human MRC5 ND50 [3]: 1.8 nM
Mouse L929 ND50 [4]: 47 nM
Cynomologus CYNOM-K1 ND50 [5]: 1.5 nM
Kd [6]: 0.21 nM
koff [6]: 5.2e-05 s⁻¹
kon [6]: 250000 M⁻¹ s⁻¹
Kd [7]: 3.8 nM
koff [7]: 0.00045 s⁻¹
kon [7]: 110000 M⁻¹ s⁻¹

B9: DOM1h-574-138 (other)
VH: B3 VH with V30F, V104A
notes: VH dAb
Human MRC5 ND50 [3]: 1.4 nM
Mouse L929 ND50 [4]: 23 nM
Cynomologus CYNOM-K1 ND50 [5]: 1.2 nM
Kd [6]: 0.15 nM
koff [6]: 3.8e-05 s⁻¹
kon [6]: 250000 M⁻¹ s⁻¹
Kd [7]: 2.4 nM
koff [7]: 0.0003 s⁻¹
kon [7]: 130000 M⁻¹ s⁻¹

B11: DMS0190 (bispecific antibody)
chain: EVQLLESGGGLVQPGGSLRLSCAASGFTFVKYSMGWVRQAPGKGPEWVSQISNTGDRTYYADSVKGRFTISRDNSKNTLYLQMNSLRAEDTAVYYCAIYTGRWEPFDYWGQGTLVTVSSASTSGPSDIQMTQSPSSLSASVGDRVTITCRASRPIGTTLSWYQQKPGKAPKLLILWNSRLQSGVPSRFSGSGSGTDFTLTISSLQPEDFATYYCAQAGTHPTTFGQGTKVEIKRAAAEQKLISEEDLN
notes: as for B1
koff [1]: 0.019 s⁻¹
koff [2]: 0.16 s⁻¹

Second part, the binder after the results:

Human MRC5 ND50 [3]: 1.1 nM
Mouse L929 ND50 [4]: 28 nM
Cynomologus CYNOM-K1 ND50 [5]: 1.8 nM
Kd [6]: 0.27 nM
koff [6]: 3.7e-05 s⁻¹
kon [6]: 140000 M⁻¹ s⁻¹
Kd [7]: 4.4 nM
koff [7]: 0.0003 s⁻¹
kon [7]: 70000 M⁻¹ s⁻¹
B2: DOM1h-574-139 (other)
VH: B3 VH with V30L, V104A
notes: VH dAb

Human MRC5 ND50 [3]: 2.1 nM
Mouse L929 ND50 [4]: 67 nM
Cynomologus CYNOM-K1 ND50 [5]: 1.6 nM
Kd [6]: 0.18 nM
koff [6]: 4.3e-05 s⁻¹
kon [6]: 240000 M⁻¹ s⁻¹
Kd [7]: 3.7 nM
koff [7]: 0.00033 s⁻¹
kon [7]: 110000 M⁻¹ s⁻¹
B4: DOM1h-574-155 (other)
VH: B3 VH with V30L
notes: VH dAb

Human MRC5 ND50 [3]: 1.2 nM
Mouse L929 ND50 [4]: 27 nM
Kd [6]: 0.15 nM
koff [6]: 4.4e-05 s⁻¹
kon [6]: 290000 M⁻¹ s⁻¹
Kd [7]: 2.5 nM
koff [7]: 0.00034 s⁻¹
kon [7]: 140000 M⁻¹ s⁻¹
B5: DOM1h-574-162 (other)
VH: B3 VH with V30F, A61S
notes: VH dAb

Human MRC5 ND50 [3]: 0.9 nM
Mouse L929 ND50 [4]: 22 nM
Kd [6]: 0.15 nM
koff [6]: 4.3e-05 s⁻¹
kon [6]: 300000 M⁻¹ s⁻¹
Kd [7]: 2.1 nM
koff [7]: 0.0003 s⁻¹
kon [7]: 140000 M⁻¹ s⁻¹
B6: DOM1h-574-156 (other)
VH: B3 VH with V30F
notes: VH dAb

binding result [1]: no binding (tested: 1 µM)
koff [2]: 0.11 s⁻¹
B10: DMS0191 (bispecific antibody)
chain: EVQLLESGGGLVQPGGSLRLSCAASGFTFVKYSMGWVRQAPGKGPEWVSQISNTGDRTYYADSVKGRFTISRDNSKNTLYLQMNSLRAEDTAVYYCAIYTGRWEPFDYWGQGTLVTVSSASTDIQMTQSPSSLSASVGDRVTITCRASQSIIKHLKWYQQKPGKAPKLLIYGASRLQSGVPSRFSGSGSGTDFTLTISSLQPEDFATYYCQQGTRWPQTFGQGTKVEIKRAAAEQKLISEEDLN
notes: as for B1

binding result [1]: no binding (tested: 1 µM)
koff [2]: 0.09 s⁻¹
B12: DMS0192 (bispecific antibody)
chain: EVQLLESGGGLVQPGGSLRLSCAASGFTFVKYSMGWVRQAPGKGPEWVSQISNTGDRTYYADSVKGRFTISRDNSKNTLYLQMNSLRAEDTAVYYCAIYTGRWEPFDYWGQGTLVTVSSASTSGPSDIQMTQSPSSLSASVGDRVTITCRASQSIIKHLKWYQQKPGKAPKLLIYGASRLQSGVPSRFSGSGSGTDFTLTISSLQPEDFATYYCQQGARWPQTFGQGTKVEIKRAAAEQKLISEEDLN
notes: as for B1
